The record followed here is article PMC10786891, “Massively parallel profiling of RNA-targeting CRISPR-Cas13d”.

Usually Kd stands for the free concentration of one partner at which half of the binding sites on the other are occupied at equilibrium, for simple one-to-one binding. A higher Kd goes with a looser complex.

Substitutions are numbered along the chain they refer to. Names may count otherwise.

B1: target 1 U3A,C4U (mixed)
RNA 1: CACCCGUGCAAAAAUGCAGGGGUCUAAAACUGAGCGGAUAACCUCUCUAUGG
RNA 2: GGGAAUGGAUCCACAUCUACGAAUUCGUACCAUAGAGAGGUUAUCCGUACACCGAGAUCGGAAGAGCACACGU
B2: target 1 insG 3' of 18,insA 3' of 17 (mixed)
RNA 1: B1 RNA 1
RNA 2: GGGAAUGGAUCCACAUCUACGAAUUCGUACCAUAGGAAGAGGUUAUCCGCUCACCGAGAUCGGAAGAGCACACGU
B3: target 1 U3G (mixed)
RNA 1: B1 RNA 1
RNA 2: B1 RNA 2 with U48C, A49G
B4: target 1 insU 3' of 5,insU 3' of 4 (mixed)
RNA 1: B1 RNA 1
RNA 2: GGGAAUGGAUCCACAUCUACGAAUUCGUACCAUAGAGAGGUUAUCCGUCUUCACCGAGAUCGGAAGAGCACACGU
B5: target 1 insU 3' of 7,insA 3' of 4 (mixed)
RNA 1: B1 RNA 1
RNA 2: B4 RNA 2 with C46U, G47C, U48G, U50A
B6: target 1 insG 3' of 18 (mixed)
RNA 1: B1 RNA 1
RNA 2: GGGAAUGGAUCCACAUCUACGAAUUCGUACCAUAGGAGAGGUUAUCCGCUCACCGAGAUCGGAAGAGCACACGU
B7: target 1 C7U,G15C (mixed)
RNA 1: B1 RNA 1
RNA 2: B1 RNA 2 with G37C, C45U, U48C, A49U
B8: target 1 insA 3' of 4,insC 3' of 3 (mixed)
RNA 1: B1 RNA 1
RNA 2: B4 RNA 2 with U48C, C49A, U51C
B9: target 1 insA 3' of 22,insC 3' of 3 (mixed)
RNA 1: B1 RNA 1
RNA 2: GGGAAUGGAUCCACAUCUACGAAUUCGUACACAUAGAGAGGUUAUCCGCUCCACCGAGAUCGGAAGAGCACACGU
B10: target 1 G5C,C7G (mixed)
RNA 1: B1 RNA 1
RNA 2: B1 RNA 2 with C45G, G47C, U48C, A49U
B11: target 1 insG 3' of 9,insA 3' of 3 (mixed)
RNA 1: B1 RNA 1
RNA 2: B4 RNA 2 with U44G, C45U, G47C, U48G, U51A
B12: target 1 G13A,U19A (mixed)
RNA 1: B1 RNA 1
RNA 2: B1 RNA 2 with U33A, G39A, U48C, A49U
B13: target 1 del9,del18 (mixed)
RNA 1: B1 RNA 1
RNA 2: GGGAAUGGAUCCACAUCUACGAAUUCGUACCAUGAGAGGUUUCCGCUCACCGAGAUCGGAAGAGCACACGU
B14: target 1 C6U,A18U (mixed)
RNA 1: B1 RNA 1
RNA 2: B1 RNA 2 with A34U, C46U, U48C, A49U
B15: target 1 insU 3' of 22,insU 3' of 15 (mixed)
RNA 1: B1 RNA 1
RNA 2: B2 RNA 2 with C31U, A32C, U33A, A34U, G35A, A38G, G39U
B16: target 1 U10A,U19A (mixed)
RNA 1: B1 RNA 1
RNA 2: B1 RNA 2 with U33A, U42A, U48C, A49U
B17: target 1 insA 3' of 21,insA 3' of 7 (mixed)
RNA 1: B1 RNA 1
RNA 2: B9 RNA 2 with A31C, C32A, C47A, G48C, C49G, U50C, C51U
B18: target 1 insA 3' of 11,insA 3' of 11 (mixed)
RNA 1: B1 RNA 1
RNA 2: B2 RNA 2 with G36A, A37G, A40G, G41U, G42A, U43A
B19: target 1 U3A,G12U (mixed)
RNA 1: B1 RNA 1
RNA 2: B1 RNA 2 with G40U, U48C
B20: target 1 G17U,C21U (mixed)
RNA 1: B1 RNA 1
RNA 2: B1 RNA 2 with C31U, G35U, U48C, A49U
B21: target 1 insG 3' of 11,insU 3' of 5 (mixed)
RNA 1: B1 RNA 1
RNA 2: B4 RNA 2 with U42G, A43U, U44A, C45U, G47C, U48G, C49U, U50C
B22: target 1 insC 3' of 15,insA 3' of 13 (mixed)
RNA 1: B1 RNA 1
RNA 2: B2 RNA 2 with G36A, A37G, A38C, G39A, A40G, G41A
B23: target 1 G13A,A16G (mixed)
RNA 1: B1 RNA 1
RNA 2: B1 RNA 2 with A36G, G39A, U48C, A49U
B24: target 1 insC 3' of 9,insU 3' of 9 (mixed)
RNA 1: B1 RNA 1
RNA 2: B4 RNA 2 with U44C, C45U, C46U, G47C, U48C, C49G, U50C
B25: target 1 insA 3' of 19,insA 3' of 10 (mixed)
RNA 1: B1 RNA 1
RNA 2: B2 RNA 2 with G35A, A38G, G39A, A40G, G42U, U44A
B26: target 1 insC 3' of 18,insG 3' of 10 (mixed)
RNA 1: B1 RNA 1
RNA 2: B2 RNA 2 with G35C, A38G, G39A, A40G, G42U, U44G
B27: target 1 U11G,C22U (mixed)
RNA 1: B1 RNA 1
RNA 2: B1 RNA 2 with C30U, U41G, U48C, A49U
B28: target 1 G13U,C22U (mixed)
RNA 1: B1 RNA 1
RNA 2: B1 RNA 2 with C30U, G39U, U48C, A49U
B29: target 1 insC 3' of 15,insA 3' of 12 (mixed)
RNA 1: B1 RNA 1
RNA 2: B2 RNA 2 with G36A, A37G, A38C, G39A, A40G, G42A
B30: target 1 insC 3' of 22,insU 3' of 2 (mixed)
RNA 1: B1 RNA 1
RNA 2: B9 RNA 2 with A31C, C52U
B31: target 1 A1C,U3G (mixed)
RNA 1: B1 RNA 1
RNA 2: B1 RNA 2 with U48C, A49G, A51C
B32: target 1 insA 3' of 17,insG 3' of 16 (mixed)
RNA 1: B1 RNA 1
RNA 2: B2 RNA 2 with G36A, A38G

The series deals with T1, EsCas13d, nuclease-dead (Eubacterium siraeum, UniProt B0MS50, R295A;H300A;R849A;H854A).
T1 sequence: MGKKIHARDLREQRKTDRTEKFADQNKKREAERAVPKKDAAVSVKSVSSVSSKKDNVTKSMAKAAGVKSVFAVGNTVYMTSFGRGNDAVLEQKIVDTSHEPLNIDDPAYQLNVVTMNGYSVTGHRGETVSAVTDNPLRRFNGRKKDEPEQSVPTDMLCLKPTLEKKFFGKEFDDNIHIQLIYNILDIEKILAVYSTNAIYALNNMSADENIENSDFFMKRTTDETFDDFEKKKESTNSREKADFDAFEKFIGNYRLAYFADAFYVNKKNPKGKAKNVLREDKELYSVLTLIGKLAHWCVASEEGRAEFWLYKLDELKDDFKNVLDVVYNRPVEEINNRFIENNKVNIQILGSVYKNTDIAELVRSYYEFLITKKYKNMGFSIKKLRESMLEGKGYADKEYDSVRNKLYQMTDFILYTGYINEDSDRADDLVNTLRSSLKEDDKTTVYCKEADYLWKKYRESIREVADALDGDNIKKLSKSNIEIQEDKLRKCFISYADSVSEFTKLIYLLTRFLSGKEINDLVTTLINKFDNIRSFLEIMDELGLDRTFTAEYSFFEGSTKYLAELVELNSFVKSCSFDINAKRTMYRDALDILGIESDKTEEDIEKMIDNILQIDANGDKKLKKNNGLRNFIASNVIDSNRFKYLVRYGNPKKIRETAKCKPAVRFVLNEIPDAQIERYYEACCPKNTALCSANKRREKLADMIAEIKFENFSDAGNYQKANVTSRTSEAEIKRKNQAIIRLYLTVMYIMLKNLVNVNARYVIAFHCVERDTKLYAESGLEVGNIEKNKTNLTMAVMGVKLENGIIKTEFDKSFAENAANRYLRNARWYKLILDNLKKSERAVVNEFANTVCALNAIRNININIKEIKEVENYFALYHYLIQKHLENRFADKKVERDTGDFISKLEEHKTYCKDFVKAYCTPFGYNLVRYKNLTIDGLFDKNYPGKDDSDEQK
Kind of series: crRNA (strand 1, pre-loaded); Mg2+; 40 mM Tris-HCl pH 7.5, 150 mM NaCl, 6 mM MgCl2, 1 mM DTT, 0.1% Tween-20, 0.2 mg/ml BSA; 25 C; 10 min per concentration, then washed. As to conditions: tags: His6-TwinStrep-SUMO cleaved; N-terminal SNAP kept (SNAP-Surface 488); label: 3' end held by stalled T7 RNA polymerase.
In turn, B1 had a Kd of 37 ± 5 nM. The value for B2 was 53 ± 8 nM; that for B3 was 11.3 ± 1.3 nM; that for B4 was 17.8 ± 2.9 nM. B5 came in with a Kd of 9.7 ± 0.7 nM. In turn, B6 displayed a Kd of 48 ± 5 nM. With B7, the Kd amounted to 48 ± 7 nM.

B8 showed a Kd of 19.9 ± 2.5 nM. B9 returned a Kd of 16.1 ± 2.5 nM.

Molecule B10 gave a dissociation constant (Kd) of 15.8 ± 0.9 nM. For the molecule B11, the dissociation constant (Kd) worked out at 10.3 ± 0.8 nM.

On to B12, for which binding was characterised by a dissociation constant (Kd) of 38 ± 6 nM. Consider B13, for which the dissociation constant Kd came to 100 ± 50 nM.

On to B14, for which the Kd was 25.8 ± 2 nM.

B15 displayed a Kd of 34 ± 6 nM. This Kd and that of the molecule before are within 1.5-fold of each other. The molecule B16 returned a Kd of 48 ± 7 nM. The molecule B17 yielded a Kd of 12.6 ± 0.8 nM. B18 displayed a Kd of 8.6 ± 0.5 nM.

As for B19, the affinity, expressed as Kd, was 7.58 ± 0.34 nM. B20 registered an equilibrium dissociation constant (Kd) of 12 ± 0.9 nM. The value for B21 was 39 ± 5 nM. The figure for B22 is 27.6 ± 2.8 nM. As for B23, the Kd is 30 ± 4 nM. Molecule B24 showed an equilibrium dissociation constant (Kd) of 7.9 ± 0.9 nM. In turn, B25 gave a Kd of 30.7 ± 1.4 nM. This Kd is about 3.9-fold higher than that of the molecule before. The molecule B26 gave a dissociation constant Kd of approximately 70 nM. B27: the Kd stood at 42 ± 7 nM. B28 showed a Kd of 82 ± 27 nM. This Kd is about 2-fold higher than that of the molecule before.

With B29, binding was characterised by a dissociation constant (Kd) of 77 ± 24 nM. B30 had an equilibrium dissociation constant (Kd) of 23 ± 4 nM. For B31, the affinity, expressed as Kd, was 46 ± 7 nM. Against the preceding molecule, the Kd is about 2-fold higher. The figure for B32 is 18.7 ± 1.5 nM.
